# T1: B7-H4 (Acro Biosystems, #B74-H82E2) (UniProt Q7Z7D3 29-258)
# T1 construct: Bought protein; also called B7-H4 captured on SA sensor
# T1 sequence (looked up): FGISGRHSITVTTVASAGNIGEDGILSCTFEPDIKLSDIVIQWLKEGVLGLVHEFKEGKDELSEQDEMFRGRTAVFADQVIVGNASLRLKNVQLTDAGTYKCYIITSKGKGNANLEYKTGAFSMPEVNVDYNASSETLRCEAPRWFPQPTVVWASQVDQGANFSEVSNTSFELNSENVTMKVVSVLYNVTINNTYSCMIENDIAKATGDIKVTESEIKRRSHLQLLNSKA
# T2: mouse B7H4 on the cell surface (mouse, UniProt Q7TSP5 25-257)
# T2 construct: whole, on cells; also called CHOK1/m B7H4
# T2 sequence (looked up): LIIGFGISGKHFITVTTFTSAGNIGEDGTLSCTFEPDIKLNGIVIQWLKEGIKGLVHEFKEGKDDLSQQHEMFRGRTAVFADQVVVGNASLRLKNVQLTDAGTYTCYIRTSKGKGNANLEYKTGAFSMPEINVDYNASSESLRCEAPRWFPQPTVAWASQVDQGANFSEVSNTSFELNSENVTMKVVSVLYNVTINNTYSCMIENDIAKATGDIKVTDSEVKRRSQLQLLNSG
# T3: human B7H4 on the cell surface (human, UniProt Q7Z7D3 25-282)
# T3 construct: whole, on cells; also called CHOK1/hu B7H4; B7H4 on SK-BR-3
# T3 sequence (looked up): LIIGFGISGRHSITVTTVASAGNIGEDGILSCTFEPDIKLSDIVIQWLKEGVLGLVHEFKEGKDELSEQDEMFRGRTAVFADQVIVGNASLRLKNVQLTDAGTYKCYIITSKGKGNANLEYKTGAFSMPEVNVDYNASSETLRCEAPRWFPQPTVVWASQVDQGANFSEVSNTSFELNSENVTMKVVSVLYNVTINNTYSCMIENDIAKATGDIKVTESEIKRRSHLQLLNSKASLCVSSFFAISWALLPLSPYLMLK
# B1: Control antibody 1 (PR000157) (antibody, V domains shown)
# VH: EVQLVQSGAEVKKPGASVKVSCKASGYTFTSYWIGWVRQAPGQGLEWIGDIYPGGGYTNYNEKFKGRVTITRDTSTSTAYLELSSLRSEDTAVYYCARLAGSSYRGAMDSWGQGTLVTVSS
# VL: DIQMTQSPSSLSASVGDRVTITCKASQGFNKYVAWYQQKPGKAPKLLIYYTSTLQPGVPSRFSGSGSGRDYTLTISSLQPEDFATYYCLQYGDLLYAFGQGTKVEIKR
# notes: Anti-B7H4 IgG1 control antibody from WO2016040724A1; also called 1D11.v1.9varC2
# Experiments:
# [1] = target: T1, B7-H4 (Acro Biosystems, #B74-H82E2); test: BLI epitope competition; 1st Ab = row; competitor (2nd Ab) Control antibody 2; inhibition of the 2nd Ab signal
# Experimental: Step one, acquisition of 100% signal of antibodies: B7-H4 (Acro Biosystems, #B74-H82E2-200 μg) was captured at a capture height of 0.25 nm using an SA sensor (Fortebio, #18-5019). The sensor was equilibrated in a buffer for 120 s and then immersed in each antibody diluted to 100 nM for 240 s, and the final signal of the antibody binding to B7-H4 was recorded as the 100% signal of the antibody. Step two, epitope competition experiment: B7-H4 was captured using an SA sensor at a capture height of 0.25 nm. The sensor was immersed in a primary antibody (at a concentration of 100 nM) for 240 s, and then the SA sensor was immersed in a mixture of the primary and secondary antibodies (both at a final concentration of 100 nM) for 240 s, and the difference in signals after immersion of the sensor in the antibody mixture was recorded as the signal of the antibody as the secondary antibody. The inhibition rate was calculated according to the following formula: […]
# [2] = target: T2, mouse B7H4 on the cell surface; test: FACS, CHOK1/m B7H4 cells
# Experimental: This example is intended to investigate the in vitro binding activity of anti-human B7H4 H2L2 monoclonal antibody to human/cynomolgus monkey/mouse B7H4. Antibody binding experiments at the cellular level were performed using CHOK1 cell line overexpressing human B7H4 (CHOK1/hu B7H4, Harbour BioMed), CHOK1 cell line overexpressing cynomolgus monkey B7H4 (CHOK1/cyno B7H4, Harbour BioMed), CHOK1 cell line overexpressing mouse B7H4 (CHOK1/m B7H4, Harbour BioMed) and SK-BR-3 cell line (ATCC® HTB-30) highly expressing human B7H4. Briefly, CHOK1/hu B7H4 cells, CHOK1/cyno B7H4 cells, CHOK1/m B7H4 cells or SK-BR-3 cells were digested and resuspended with PBS containing 2% BSA. The cell density was adjusted to 1×10⁶ cells/mL. The cells were seeded in a 96-well V-bottom plate (Corning, #3894) at 100 μL/well, followed by the addition of test antibodies diluted in a 3-fold concentration gradient of 2 times the final concentration, each at 100 μL/well. The cells were incubated at 4° C. for 2 h away from light. Thereafter, the cells in each well were rinsed twice with 100 μL of pre-cooled PBS containing 2% BSA, and centrifuged at 500 g at 4° C. for 5 min, and then the supernatant was discarded. […] Finally, the cells in each well were resuspended with 200 μL of pre-cooled PBS containing 2% BSA, and the fluorescence signal values were read using an ACEA Novocyte3000 flow cytometer.
# [3] = target: T3, human B7H4 on the cell surface; test: FACS on MDA-MB-468 cells; in the drawn table the number stands under the head 'EC50 (nM)' (the two heads are interchanged)
# [4] = target: T3, human B7H4 on the cell surface; test: FACS, SK-BR-3 cells
# Experimental: This example is intended to investigate the in vitro binding activity of anti-human B7H4 H2L2 monoclonal antibody to human/cynomolgus monkey/mouse B7H4. Antibody binding experiments at the cellular level were performed using CHOK1 cell line overexpressing human B7H4 (CHOK1/hu B7H4, Harbour BioMed), CHOK1 cell line overexpressing cynomolgus monkey B7H4 (CHOK1/cyno B7H4, Harbour BioMed), CHOK1 cell line overexpressing mouse B7H4 (CHOK1/m B7H4, Harbour BioMed) and SK-BR-3 cell line (ATCC® HTB-30) highly expressing human B7H4. Briefly, CHOK1/hu B7H4 cells, CHOK1/cyno B7H4 cells, CHOK1/m B7H4 cells or SK-BR-3 cells were digested and resuspended with PBS containing 2% BSA. The cell density was adjusted to 1×10⁶ cells/mL. The cells were seeded in a 96-well V-bottom plate (Corning, #3894) at 100 μL/well, followed by the addition of test antibodies diluted in a 3-fold concentration gradient of 2 times the final concentration, each at 100 μL/well. The cells were incubated at 4° C. for 2 h away from light. Thereafter, the cells in each well were rinsed twice with 100 μL of pre-cooled PBS containing 2% BSA, and centrifuged at 500 g at 4° C. for 5 min, and then the supernatant was discarded. Then 100 μL of a fluorescent secondary antibody (Alexa Fluor 488-conjugated AffiniPure Goat Anti-Human IgG, Fcγ Fragment Specific, Jackson, #109-545-098, 1:500 diluted) was added to each well. The plate was incubated away from light at 4° C. for 1 h. The cells in each well were washed twice with 100 μL of pre-cooled PBS containing 2% BSA, and centrifuged at 500 g at 4° C. for 5 minutes, and then the supernatant was discarded. Finally, the cells in each well were resuspended with 200 μL of pre-cooled PBS containing 2% BSA, and the fluorescence signal values were read using an ACEA Novocyte3000 flow cytometer.
binder,measurement,setting,value
B1,Competitive inhibition rate (%),[1],94.6%
same,EC50,[2],1.38 nM
same,Maximum MFI,[2],858000 MFI
same,Maximum MFI,[3],254000
same,EC50,[4],1.18 nM
same,Maximum MFI,[4],316000 MFI
